Molecular target: full-length PcrV protein (recombinant, 1-294) (in the biotin-labeled form: PEO-maleimide activated biotin on the inserted cysteine)
Assay: SPR

B1: 1F3 (antibody, V domains shown)
VH: QVQLQQPGAELVKPGASVKLSCKASGYSFTSYWMHWVKQRPGQGLEWIGEINPSNGRTNYNEKFNTKATLTVDTSSSTAYMQLSSLTSEDSAVYYCVLYGNYVVYYTMDYWGQGTSVTVSS
VL: QIVLTQSPTIMSASLGEEITLTCSASTSVSYMEWYQQKSGTSPKILIYTTSKLASGVPSRFSGSGSGTFYSLTISSVEAEDAADYYCHQWRNYPFTFGSGTKLEIKR
  Kd: 0.37 nM

B2: 2A4 (antibody, V domains shown)
VH: DVQLQESGPGLVKPSQSLSLTCTVTGYSITSDYAWNWIRQFPGNKLEWMGYITYNGDTSYNPSLKSRISIARDTSKNQFFLQLNSVTTEDTATYSCAGSRNYYGAWFAYWGQGTLVTVSA
VL: DIVMTQSHKFMSTSIGDRVSINYKASQYVGTTVAWYQQKSGHSPKLLIYRASTRHTGVPDRFTGSGSGTDFTLNISNVQSEDLADYFCQQYCSSPLTFGAGTYLEVKR
  Kd: 0.35 nM
